From US8586538B2, “Method of treating a patient suffering from a bleeding disorder comprising administering an antibody against the A3-C1 of FVIII” (Stichting Sanquin Bloedvoorziening, priority 2002, dated 2013)

How the values were obtained:
[1] = molecular target: T1, FVIII/FV^1811-1818 chimera (Homo sapiens, UniProt P00451, E1830S/F1835V/K1832Y/K1837H/T1831S); assay: SPR binding of scFv KM41 to FVIII/FV^1811-1818 light chain chimera; conditions: scFv 40 nM
T1 construct: FVIII/FV^1811-1818 light chain chimera and wild-type FVIII light chain were purified employing Q-Sepharose chromatography; made in house; host or cells: murine fibroblasts (C127) cells
T1 sequence (P00451 1668-2351 E1830S/T1831S/K1832Y/F1835V/K1837H limits assumed): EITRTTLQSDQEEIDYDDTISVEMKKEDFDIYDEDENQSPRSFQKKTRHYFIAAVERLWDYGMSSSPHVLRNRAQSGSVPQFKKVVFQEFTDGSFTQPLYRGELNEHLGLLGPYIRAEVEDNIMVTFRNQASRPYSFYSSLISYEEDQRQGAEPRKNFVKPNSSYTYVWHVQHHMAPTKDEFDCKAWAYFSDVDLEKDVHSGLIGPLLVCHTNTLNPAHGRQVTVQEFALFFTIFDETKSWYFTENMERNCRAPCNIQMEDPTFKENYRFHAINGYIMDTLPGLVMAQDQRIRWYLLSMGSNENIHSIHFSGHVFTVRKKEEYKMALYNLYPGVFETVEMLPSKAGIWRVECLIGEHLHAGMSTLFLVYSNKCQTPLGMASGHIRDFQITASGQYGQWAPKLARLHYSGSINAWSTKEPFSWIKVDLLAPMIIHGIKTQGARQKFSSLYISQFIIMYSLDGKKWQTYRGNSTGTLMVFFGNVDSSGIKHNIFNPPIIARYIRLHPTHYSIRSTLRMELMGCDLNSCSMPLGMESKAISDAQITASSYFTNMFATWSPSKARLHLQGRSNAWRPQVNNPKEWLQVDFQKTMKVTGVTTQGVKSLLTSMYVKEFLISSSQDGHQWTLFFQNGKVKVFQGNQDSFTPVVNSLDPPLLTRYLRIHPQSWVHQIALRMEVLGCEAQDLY
Protocol: FIG. 7. Binding of scFv KM41 to the FVIII/FV^1811-1818 light chain chimera. ScFv EL14 at a CM5 sensor chip (67 fmol/mm^2) was incubated with either the recombinant wild-type FVIII light chain or the recombinant FVIII/FV^1811-1818 chimera till a density of 20 fmol/mm^2, in 150 mM NaCl, 50 mM Tris (pH 7.4). ScFv KM41 (40 nM) was passed over two separate channels with immobilized intact FVIII light chain (I) or FVIII/FV^1811-1818 chimera (II), respectively. Response is indicated as Resonance Units (RU) and is corrected for nonspecific binding.
The kinetics of protein interactions was determined by surface plasmon resonance (SPR) analysis, employing a BIAcore™2000 biosensor system (Biacore AS, Uppsala, Sweden). […] Association of analyte was assessed in 150 mM NaCl, 2 mM CaCl2, 0.005% (v/v) Tween® 20, and 20 mM Hepes (pH 7.4) for 2 min, at a flow rate of 20 μl/min at 25° C. […] The association (kon) and dissociation (koff) rate constants were determined by using the BIAevaluation software 3.1 (Biacore AB, Uppsala, Sweden). […] Equilibrium dissociation constants (kd) were calculated from the ratio koff/kon. […]

FVIIIa-FIXa complex = FVIIIa-FIXa complex (Homo sapiens, UniProt P00451+P00740); conditions: by interfering with the assembly of the FVIIIa-FIXa complex; cited from earlier work
Sequence of FVIIIa-FIXa complex (P00451 1709-2351 limits assumed): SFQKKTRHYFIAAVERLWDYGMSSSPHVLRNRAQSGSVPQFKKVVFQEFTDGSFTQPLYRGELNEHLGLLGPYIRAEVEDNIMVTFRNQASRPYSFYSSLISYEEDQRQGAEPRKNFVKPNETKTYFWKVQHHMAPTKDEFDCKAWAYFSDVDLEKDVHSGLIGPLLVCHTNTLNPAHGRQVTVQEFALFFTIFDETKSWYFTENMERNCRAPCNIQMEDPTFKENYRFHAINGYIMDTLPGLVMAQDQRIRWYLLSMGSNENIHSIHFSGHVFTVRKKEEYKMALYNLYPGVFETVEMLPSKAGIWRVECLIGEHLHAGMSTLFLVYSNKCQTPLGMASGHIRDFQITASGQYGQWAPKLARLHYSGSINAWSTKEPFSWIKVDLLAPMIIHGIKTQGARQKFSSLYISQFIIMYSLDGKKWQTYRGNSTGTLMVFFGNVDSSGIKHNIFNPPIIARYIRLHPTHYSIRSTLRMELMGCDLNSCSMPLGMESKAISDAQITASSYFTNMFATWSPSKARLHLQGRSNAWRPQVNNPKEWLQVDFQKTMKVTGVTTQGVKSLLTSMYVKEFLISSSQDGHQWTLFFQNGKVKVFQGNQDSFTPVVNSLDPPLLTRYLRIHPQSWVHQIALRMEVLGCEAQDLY
Sequence of FVIIIa-FIXa complex (P00740 47-191 limits assumed): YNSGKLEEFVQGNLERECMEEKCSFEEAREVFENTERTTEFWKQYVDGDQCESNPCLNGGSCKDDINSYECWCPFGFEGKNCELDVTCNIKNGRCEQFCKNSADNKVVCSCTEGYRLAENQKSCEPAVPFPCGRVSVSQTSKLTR

B1: scFv KM41: scFv antibody fragment directed against FVIII region Arg^1803-Lys^1818 (protein)
scFv: QVQLLQSAADVKKPGASVKVSCTASGYIFTSYDIDWVRQATGQGLEWMGWMNPNSGNAGFAQKFKGRLTLTRDTSTSTAYMELRRLESEDTAVYYCARSTPHSYSGSGLPPTSDSWGQGTLVTVSSGGGGSGGGGSGGGGSEIVLTQSPGTLSLSPGERATLSCRASQSVSSSFLGWYQQKPGQAPRLLIYGASSRATGIPDRFSGSGSGTDFTLTISRLEPEDFAVYYCQQYGISPLTFGGGTKLEIKRAAAEQKLISEEDLNGAAHHHHHH
Binding of scFv to immobilized FVIII/FV^1811-1818 chimera [1]: did not recognize | Inhibition of FVIII procoagulant activity (FVIIIa-FIXa complex): effective inhibitors
